# Measurements taken from US20200317755A1 (HUMABS BIOMED, published 2020).
# B1: ZKA230-Fab (Fab, V domains shown)
# VH: QVQLQESGPGLVKPSETLSLTCAVSGGSISSDYWSWIRQPPGKGLEWIGYIYYSGSTNYNPSLKSRVTISVDTSKNHFSLKLNSVTAADTAVYYCARRRKYDSLWGSFAFDIWGQGTMVTVSS
# VL: QSVLTQPPSASGTPGQRVTISCSGSSSNIGGNYVYWYQQLPGTAPKLLICINDHRPSGVPDRFSGSKSGTSASLAISGLQSEDEADYYCATWDDSLGGLVFGGGTKLTVL
# notes: also called Fab of ZKA230
# How the values were obtained:
# ZIKV E protein = molecular target: T1, ZIKV E protein (Zika virus, UniProt Q32ZE1 291-694); experiment: ELISA
# T1 construct: domain: envelope protein (E protein); also called Zika virus envelope protein; recombinant ZIKV E protein
# ZIKV EDIII = molecular target: T2, ZIKV EDIII (Zika virus, UniProt A0A024B7W1 599-693); experiment: ELISA
# T2 construct: also called domain III of ZIKV E protein; DIII ZI
binder,measurement,setting,value
B1,binding result,ZIKV E protein,no binding (tested: 10 nM)
same,binding result,ZIKV EDIII,no binding (tested: 10 nM)
